Substrate in this data set: O=[N+]([O-])c1ccccc1O[C@@H]1O[C@H](CO)[C@H](O)[C@H](O)[C@H]1O
Kind of data set: o-nitrophenol release, Lineweaver-Burk. Type of data set: biochemical, Kluyveromyces lactis. The settings on record: crude extract (30 μg protein); buffer Z with 1.6 mM MgSO4; ONPG 2-12 mM.

This note sets out measurements from publication PMC1764428, “Secretion and properties of a hybrid Kluyveromyces lactis-Aspergillus niger β-galactosidase” (Microbial Cell Factories, 2006).

B1: native K. lactis β-galactosidase (pSPGK1-LAC4) (Kluyveromyces lactis NRRL Y-1140) (protein)
chain: MSCLIPENLRNPKKVHENRLPTRAYYYDQDIFESLNGPWAFALFDAPLDAPDAKNLDWETAKKWSTISVPSHWELQEDWKYGKPIYTNVQYPIPIDIPNPPTVNPTGVYARTFELDSKSIESFEHRLRFEGVDNCYELYVNGQYVGFNKGSRNGAEFDIQKYVSEGENLVVVKVFKWSDSTYIEDQDQWWLSGIYRDVSLLKLPKKAHIEDVRVTTTFVDSQYQDAELSVKVDVQGSSYDHINFTLYEPEDGSKVYDASSLLNEENGNTTFSTKEFISFSTKKNEETAFKINVKAPEHWTAENPTLYKYQLDLIGSDGSVIQSIKHHVGFRQVELKDGNITVNGKDILFRGVNRHDHHPRFGRAVPLDFVVRDLILMKKFNINAVRNSHYPNHPKVYDLFDKLGFWVIDEADLETHGVQEPFNRHTNLEAEYPDTKNKLYDVNAHYLSDNPEYEVAYLDRASQLVLRDVNHPSIIIWSLGNEACYGRNHKAMYKLIKQLDPTRLVHYEGDLNALSADIFSFMYPTFEIMERWRKNHTDENGKFEKPLILCEYGHAMGNGPGSLKEYQELFYKEKFYQGGFIWEWANHGIEFEDVSTADGKLHKAYAYGGDFKEEVHDGVFIMDGLCNSEHNPTPGLVEYKKVIEPVHIKIAHGSVTITNKHDFITTDHLLFIDKDTGKTIDVPSLKPEESVTIPSDTTYVVAVLKDDAGVLKAGHEIAWGQAELPLKVPDFVTETAEKAAKINDGKRYVSVESSGLHFILDKLLGKIESLKVKGKEISSKFEGSSITFWRPPTNNDEPRDFKNWKKYNIDLMKQNIHGVSVEKGSNGSLAVVTVNSRISPVVFYYGFETVQKYTIFANKINLNTSMKLTGEYQPPDFPRVGYEFWLGDSYESFEWLGRGPGESYPDKKESQRFGLYDSKDVEEFVYDYPQENGNHTDTHFLNIKFEGAGKLSIFQKEKPFNFKISDEYGVDEAAHACDVKRYGRHYLRLDHAIHGVGSEACGPAVLDQYRLKAQDFNFEFDLAFE
notes: expressed in K. lactis MW190-9B (lac4-8); crude cell-free extract
Consider B1, for which the Km (usually the concentration of substrate that gives half-maximal velocity) is 1500 µM.
